Results on 17 sequences are retold here after a protein production outcome set (Wang et al. 2014).
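Further: failed if final PepcDB status was selected cloned or expressed and not failed if soluble or beyond.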

This series in a line: label from the status in PepcDB records.
Turning to “MATRRTFLRGAISLTLIGSTGQLRALAHPRANTWALPIDTQAQADLTRYVDVFIGSSGHGHTFPGATLPFGMVQLSPDTDNAVWDACSGYHASNGSIMGFSHTHLSGTGIGDMLDILLMPGTGDVKLAPGPLNAPETGYRQRYDHAEEVASPGYYQVRLKDTDIVAELTATARTGLHRYHFPQHQAGHLLLDLSHAMQDNPSTPPRLRDVELSIVDTRTLLGGRRVYQWAKGRYLFFAMRLSRPFARAQLYSNDAPLTADTRQVQGVCLKAALHFPDAGEAPLLVKVGLSAVSAANALANLDAELPDFDFARVHAEAVAAWENALGRARIATDNPAQRRIFYTSLYHSLLAPTLFSDVDGRYRGMDLQVHTLPTGYHNYSTYSLWDTYRALHPLLTLVQSDRVPDLLQCLVRGAAECPDGVGIWPLQGVETGCMIGYHSAVALAEGYTKGFTGIDYAAAWPHYRKRAMQDHAHGLRYYRRLGYIPSDKVDESVSRTLEYAYDDWACAHLATAAGAHSEARVLRARSRHYRHVFNRDSGFMQPRLENGAWATPFDPRALGHLKQWHDFTECNAWQATFLNQHDVYGYMALFGGADHFAAKLDALFSALSELPPGAPPDIDGMVGQYAHGNEPSHHIAYLYVYAGQAYKTQAMVRRLLREQYHDGRDGLSGNEDCGQMSAWFVLSALGMYAVDPVSGIYVIGSPLFPYAELDVGRGRKLRILARHTSASNVYVQALRWNGSPMTRAWLRHTELAGGGTLEFEMGAQPNLDFGTHPQDLPPSFMALQPVPKHA”, the protein production result is reported as “failed”.

In the case of “MATSMTDIKGFNMISIEQEKELGNKFAVEIEKQQQPVNDPEVQRYVDKVGKRLLSGARAVEFDYVFKVVKDDSVNAFAIPGGRVYVHTGLLKAADNETELAGVLAHEINHAVARHGTRQMTQEYGYSLVLSLVLGDNPNMLAQLAGQLFGKAGMMSYSREYENQADFLGVETMYKAGYNPNGLTSFFQKLNAMDGGTQSNVARFFSTHPLTSERIQRVQAEIAKLPPQRYLTDETEFKKIKGRLKLEHHHHHH”, the protein production result was “not failed”. As for “MATTKRVLYVGGLAEEVDDKVLHAAFIPFGDITDIQIPLDYETEKHRGFAFVEFELAEDAAAAIDNMNESELFGRTIRVNLAKPMRIKE”, the protein production result is reported as “not failed”. For the sequence “MATVAFHTLGCKVNHYETEAIWQLFKEAGYERKEFESSADVYVINTCTVTNTGDKKSRQVIRRAIRQNPDAVICVTGCYAQTSPAEIMAIPGVDIVVGTQDREKMLGYIKQYQEERQPINGVSNIMKARVFEELDVPAFTDRTRASLKIQEGCNNFCTFCIIPWARGLLRSRDPEEVIRQAQQLVDAGYKEIVLTGIHTGGYGEDMKDYNFAQLLKELDSRVKGLKRIRISSIEASQITDEVIEVLDRSDKIVRHLHIPLQSGSNSVLKRMRRKYTMEFFADRLTKLKKALPGLAVTSDVIVGFPGETEEEFMETYNFIKEHKFSELHVFPYSKRTGTPAARMDGQVDENVKNERVHKLIALSDQLAKEYASDYEGDVLEIIPEEPFTETGEGNLLVGYTDNYIKVVFEGSEDLIGQLVKVKILKAGYPYNKGQFVRVAEDDVRENIRLSS”, the protein production result is listed as “failed”. Turning to “MAVAGAVSGEPLVHWCTQQLRKTFGLDVSEEIIQYVLSIESAEEIREYVTDLLQGNEGKKGQFIEELITKWQKNDQELISDPLQQCFKKDEILDGQKSGDHLKRGRKKGRNRQEVPAFTEPDTTAEVKTPFDLAKAQENSNSVKKKTKFVNLYTREGQDRLAVLLPGRHPCDCLGQKHKLINNCLICGRIVCEQEGSGPCLFCGTLVCTHEEQDILQRDSNKSQKLLKKLMSGVENSGKVDISTKDLLPHQELRIKSGLEKAIKHKDKLLEFDRTSIRRTQVIDDESDYFASDSNQWLSKLERETLQKREEELRELRHASRLSKKVTIDFAGRKILEEENSLAEYHSRLDETIQAIANGTLNQPLTKLDRSSEEPLGVLVNPNMYQSPPQWVDHTGAASQKKAFRSSGFGLEFNSFQHQLRIQDQEFQEGFDGGWCLSVHQPWASLLVRGIKRVEGRSWYTPHRGRLWIAATAKKPSPQEVSELQATYRLLRGKDVEFPNDYPSGCLLGCVDLIDCLSQKQFKEQFPDISQESDSPFVFICKNPQEMVVKFPIKGNPKIWKLDSKIHQGAKKGLMKQNKAV”, the protein production entry was “not failed”. Take “MAVEEFNQNLNEIMKFKECNITVDTCVVIDGRITELISDGTIEKCTIIVPEAVISELEAQANKGREIGYFGIEELKKLVKVAKENEMVLEYYGERPSTGEVSLAKAGEIDAMIRKVAKDTNSILFTSDRIQYNLAIAQNINAHFLKVHEEKVDLKLV”: the protein production result is “failed”. In the case of “MAVFHDEVEIEDFQYDEDSETYFYPCPCGDNFAITKEDLENGEDVATCPSCSLIIKVIYDKDQFMCGETV”, the protein production result is reported as “not failed”. For the sequence “MAVGFFAQVIDGALGMAYGITATTFLLSAGATPAAASASVHIAEVFTTGFSGISHVKLGNVNKSLFLRLLLPGMIGAVLGAVLITRFDGHQLKPFISAYLLLMGLYILSKAYRHVIKRRAPRHVAKLALFGGFVDAAGGGWGPVVTSSLIGSGSDPRTTIGSVNFAEFFLTIASATSFILLAGQPDTWKMVAGLVFGGLFAAPFAALLCKKLSPRTLLVIVGTLITLISAYNIYIGLR”, the protein production entry is recorded as “failed”. For the sequence “MAVLPPDPVFSLRSPDMGAVNSLCFQESDRLLAGTIKGSVFLWDLQTNRSALHFEVGSDPITSLHHTPDRLVTQEKGGTITMFSIGGSSYVKERSIPGNHLGFCRSALHTNTSKTNEQLLFYPCEESSIGVLHVTDAAAPTQILVPDDPQLPKLGSVTCFKPFECASQLFLLAGYESGHFLTWDISSSVILDVMELAQDATSVDYDPVTNRGIVGGPTDKLISFSYQRSSMQMQLGSELCIKNPGVNGVRIRPDQKVFASAGWDGRIRIFSWKSLRPLAVLTQHKNGGVMDLAFSSQQVAMWHAPIMAAAGMDGQISLWDLYN”, the protein production entry is on record as “failed”. The result for “MAVLVTGATGFIAQWVLDCLLKENYQVIGTVRSQEKGDKLHKQFGSPSKLSFEIVKDISDTEAFEPLFKKRGKEIDIVLHMASPCHFNTSDYEKDLLIPALNGTKGVLNAIKKYGDVKKVVVTSSYAAITDMVNSADGSLVFTEKDWNPATWERCQTDAVNAYCASKKFAEQAAWEFSKETGVSLTTINPVFVFGPQKFDEDVTSQLNTSNEIINGLIHSKPGDKLEPDYHSAYVDVRDVARAHLVAFQKDTTGERLGLSNGAFNCQSILDILNEKFPQLDITKGPEPGMGDTKPGAVFDNRHSKEVLAFPFISLEQCVYDTVAQVLKKEGRLLEHHHHHH” reads “not failed”; that for “MAVMARHESYYGNTKPAKLNEEKVTRVRFYLHDTLSGQNPTAVRIAHANLTGGSASPVGFGSLFVIDDPLTVGPEKHSKEIGNGQGMYVSGCKDLSKFTIVMYADLAFTAGKFNGSSISIFSRNPVAEEVGEREIAIVGGRGKFRMARGFVKVKTNKIDMKTGDAVLRYDATVYHY”, “failed”. Regarding “MAVRGVSLRQPYPREPRGWHQEWSLRRAMRMARAAYWESYSATATDFWMSAEFTSLYDADTPDDSVPLAPARDHDLTDSHAILQAHYAACWTEGRPFAVETKLIKPDGRLLDCVVHGEPEFDANGQVQRVFGIVRDATPETSALRQLAVSEQRLADFVSTASDWCWESGPDHRLLPYPKSLDGNAALQTVASGGKARWELAYAPDEEGSMALHRDDMEAHRPFRDFIYTSIGNDGSRIIISTSGKPIFADDGTFLGYRGTASDITQLAAARTLLDQRTGALEEAHRLGRIGTWTHRLDTGRTVWSPELYQLLGLEPDAFEPTYEGTEPYFLDDDAARLLKIQKRVLRTSTTEATDIRILHTDGTPRDLAIICKAEISNGNVIGLIGTAQDVTDRKEAERRLEQLAYTDPLTGLANRALYKRKLADLFENPMAEHGQNALYLIDLDRFKEVNDSLGHSTGDSLLIHVAGVLRQELGPQAFIARIGGDEFAVLTNSPNTSVEATTALADRLIAKLSVPVELAEGEACIGATIGIAILPEHGATAEKASRNADLALYMAKEAGRGRAQLFEPMYAEAVDQKLDLGRRLRHAVDSGGLNTHYQPQIDLKTGRVIGFEALLRWSHPERGPISPAEFIPIAETTGLIVDLGHWVLRDACKQMRGWLDAGLPARTISVNVSPAQIWNGDFEKVVATVLADTGLPPELLCLELTENLFVDHTKQKVSTTLAALSKLGIQLALDDFGSGYSSLGYLTRLPFNRLKIDRSFVDGIATVPEKRKLLGGIIALSHGLGMSVVAEGAELQAEVDLLAAFDCDFVQGYAFSKPVAADQAAVVAAEIERKPGR”, the protein production entry is “failed”. With “MAVRVCCHAPPGVSNHLFTFCAGNLTTGFSGGSVTSQKGGAAGLPTCSRRCPRGCLPGSDPLPRHPRRYAPPVTPPVTPPTTPAPRSRARMLELVFPKDTNYHGTAFGGWVLALMDKAASVAAVRHAGGNVVTARMDGVDFHVPIRVGDAVALDARVIRVGRSSMTIRVDVYRENMASGEQQLATGGLFTFVALGEDGKPRPVPPLPEGSTDSEQPDYEARPLEHHHHHH” the entry was “failed”; with “MAVSPDDPLILVGRVAGGFGVRGEVRITTYTEDPLSIAGFKALKRQDGSPALTIASARKTKDGVVCRCPGVETKEAADALRGLRLYVPRSALPEPDDDEFYLTDLVGLTVRHIQTDQLLGRVKSVQNFGAGDILEITPDLGGPTWYLPFTRAAVPEVRVSEGLILADPPALVGDHEGPEEKGLDENEELGDRDLEHHHHHH”, “failed”. On to “MAVTISGVRKHSPAYRHGIQAGERLLTLNGNEIMDVLDYRFYQLNTALVLELENNRGERRTVSLKKPEYEEIGLEFETYLMDRQHSCKNKCVFCFIDQLPKGLRKSLYFKDDDSRLSFLFGNYVTLTNLTEHEISRIIKMHISPMNISVHTTNPELRVKMMKNPRAGEALSIIRRFAQAGIKINCQIVLCPGYNDGEELKRTLSDLETMCPQVQAVAVVPVGITRYRQNLPEMRSFTRETAGEAIDLIESFGEKCLQKYGTRVAYPGDEFYLKAERPLPPAGFYEDFSMLENGVGLLPLLMDEFYSALEEAGETGGRKREITIATGMAPREYIRGFLDDAIKKFPHISGRVTPIVNRFFGETITVSGLVTGTDLIEQLSSVDLGDELLIPACMLRREGDLFLDDVSLQDVEAALKVPVRPVPNDGYAFLDAILGSESLEHHHHHH”, for which the protein production entry was “failed”. With “MAVTLQQTLIDIDEEQLVFHLHNDQISYILGVETGNVLAHLYFGPRVRGYHGERQYPRIDRGFSGNLPNTTDRSYSKDDLPQEYGGNNTGDYRQPAAIIRAANGARTVDFRYQDCRMEAGKPELKGLPQTYVEDEDEAQTLIVTLRDATLGVTLELAYTIYRDRPVITRSARLINHSEQAVDLEKVASMQMDLPTQPLDAISLPGSYARERQLSRERLHRGVTQFESRRGASSHHMNPFVALADPNTNEFQGNVLGALLIYSGNHQISLERDPIGQTRLTMGINEYNFDWRLAAGDSFQTPEVAMVYSTTGLNGMSQTYHDLLRDRVARSRYKHDLRPILINNWEATYFDFDADKIQSILDAAAPLGIEMFVLDDGWFGHRNDDNSSLGDWFVNRNKLPGGLADISKRTHDKGMRFGLWFEPENISADSDLYRAHPDWVLGVPDRGRTLSRNEYVLDFSQPDVVDNIFEQMTAVLDKVPIDYIKWDMNRNLTEVYSPHSDSTHEGETSHRFILGVYDLMERLTKRYPQILFEGCSGGGGRFDAGLMYYMPQSWPSDNNDPIERLKIQYGTSLVYPISAITAHVGTSPDELLGRSTSMKMRGAVAMSGTLGYELDAAQLSDADKQAVKRQVAFYKQHRELVQYGTFYRLESPFESNTVAWMFVSPDQKEALLFTFVILGAVQPEPHITKLAGLDPQQTYVETDTNKMYGGDELMQLGLYTTPVQTSDFTAQVHYFKAKDLEHHHHHH” the entry was “failed”; with “MAVTPVLACYRTCDAAIGGITAWQVTTGPDGPRTNVVGSCPLGDASWVTPLYHLVVVLCERDGTLVVVHPGREFQVVGTVQLKGQWPCHGAVDPTGRLMAVADYASGQVEFVDLSDPTRPTVRNVLDLGQGCVFPRPVADRQEGPHAHQVTWLDRAHLAVTDLGADRINVVRWSEAGPEIIGSLKTPAGCGPRHLTLTEDGRKQILTVGGALSGTVSTWSRPTGHDMWAREWRFVQETASSRWSHTGSQERRSACTPASPSAIVTTPDGRHFVANRSVGSIGILGGRFGRINLIDEFDTTGANPRDITVTTQNGTRVWVALPEEGQIAIHLRDEDTGGWQVETTIDQPGAMRVIVGPTTG”, “failed”.
